One assay deals with Erysiphe cichoracearum. The assay can be described thus: Infection of transgenic Arabidopsis plants with Erysiphe cichoracearum. In kind it is in vivo, Arabidopsis thaliana. As to conditions: constitutive or pathogen-inducible expression. As to the method: (§1) The transformation is conducted according to the floral dip method (modified according to Clough and Bent, 1998). After being harvested, the seeds are sterilized with chlorine gas overnight and subsequently laid out on selection plates. The addition of antibiotics is conducted in dependency on the plant resistance marker. In case of pSUN2, BASTA is added; in case of Lo123, kanamycin is added. After sterilization, the seeds are laid out on the selection plates and are stored for stratification for two days at 4° C. in a cooling chamber. Subsequently, they are further observed under short-day conditions. After about 10 days, the first selection of the plants can be performed. Non-transgenic plants will lose color during selection, while transgenic plants having the corresponding resistance gene remain green. Those plants remaining green after the first selection are selected a second time under same conditions. Those plants still maintaining their color during the second selection can then be transferred to soil. The plants are selfed and the resulting T2 seed populations are subjected to phytopathological analysis. […]
The biotrophic mildew fungus is cultivated on Arabidopsis thaliana plants. […] These symptoms are quantified and tested for significance.

A further assay concerns Peronospora parasitica. As to the kind of experiment: Infection of transgenic Arabidopsis plants with Peronospora parasitica. Format: in vivo, Arabidopsis thaliana. As to conditions: constitutive or pathogen-inducible expression. How it is done: as §1
5 to 8-week-old plants are sprayed with a conidia spore suspension (about 10^6 spores/ml). […] These symptoms are quantified and tested for significance.

The next assay concerns peroxisomes. The assay can be described thus: Movement of GFP-labeled peroxisomes in transfected epidermal leaf cells. Format: cell-based, Hordeum vulgare. The note with it: epidermal leaf cells from barley; co-expression with GFP having peroxisomal targeting sequence. From the text:
In order to further examine the HvADF3 function in barley, the effect of the overexpression or the silencing of HvADF3 on the mobility of peroxisomes was examined. Peroxisomes are known to be moved along actin filaments (Mathur (2002) Plant Physiology, Vol. 128, 1031-1045). Herein, barley peroxisomes were visualized by co-transformation of a plasmid expressing a variant of the Green Fluorescent Protein (GFP) with a peroxisomal targeting sequence (Mathur et al., vide supra). Herein, epidermal leaf cells from barley were transfected either only with the GFP construct or together with the already mentioned mutant of HvADF3 (S^6A). The expression of said mutant corresponds to an increase of the content and the activity of ADF3.
With the aid of the PCR method, a so-called peroxisome target sequence (PTS) was fused C-terminally to the green fluorescent protein. Said sequence consists of the three amino acids serine (S), […], and leucine (L) (Jedd, G. et al. (2002) Plant Cell Physiol 43, 384-392).
The GFP peroxisome target sequence vector (pGFPTS, FIG. 6) has a maize polyubiquitin promoter (pUbi), the coding gene for the green fluorescent protein including the peroxisome target sequence (GFPTS), and a nopaline synthase transcription terminator sequence (NOS).
The overexpression of HvADF3 was performed as described in the above. […]

A further assay concerns actin cytoskeleton. As to the kind of experiment: Phalloidine staining of the actin cytoskeleton in transfected epidermal leaf cells. Format: cell-based, Hordeum vulgare. As to conditions: BCIngridmlo5; cells labeled with dsRED. From the text: For this experiment, epidermal leaf cells from barley were transfected with a plasmid expressing dsRED (RFP) in order to label the transfected cells. In addition in some experiments, a constitutively active variant of HvADF3 bearing an S^6A amino acid substitution rendering the protein inaccessible for N-terminal phosphorylation was expressed. A corresponding mutant was described for ADF3 from maize (Smertenko et al., Plant J 14, 187-193).
As described in the above, said vectors were then used for transfecting the plants.
The dsRED vector (pUbi-RFP-Nos, FIG. 4) has a maize polyubiquitin promoter (pUbi), the coding gene for the red fluorescent protein (Discosoma sp. fluorescent protein FP583; RFP), and a nopaline synthase transcription termination sequence (NOS). The GenBank accession number for RFP is AF168419.
The experiments were conducted in BCIngridmlo5.

Assay [1] concerns Blumeria graminis f. sp. hordei (Bgh). As to the kind of experiment: Fungal development on epidermal leaf cells co-transfected with GUS reporter and HvADF3(S^6A). Format: cell-based, Hordeum vulgare. The note with it: BCIngridmlo5; Bgh conidia four hours after bombardment. How it is done:
Therefore, those cells were examined, which had been transfected with HvADF3 overexpression constructs.
For said experiments, epidermal leaf cells from barley were co-transfected with a plasmid for the GUS reporter together with a plasmid coding for HvADF3(S^6A), as was described in the above. Four hours after bombardment, the leaves were infected with Bgh conidia, and 22 hours after inoculation the leaves were stained with respect to GUS activity and fungal structures. FIGS. 8a and b show the fungal development in a transfected epidermal leaf cell. […] The expression of HvADF3(S^6A) corresponds to an overexpression of HvADF3. The experiments were performed in BCIngridmlo5 plants.

We go through two molecules from US7928289B2, “Method for production of transgenic plants with increased pathogenic resistance by altering the content and/or activity of actin-depolymerising factors” (BASF Plant Science GmbH, priority 2004, dated 2011).

B1: AtADF3: ADF3 from Arabidopsis thaliana (SEQ ID No. 11), expressed constitutively (pSUN2) or pathogen-inducibly (Lo123) in transgenic Arabidopsis plants (protein, listed as Arabidopsis thaliana)
chain: MANAASGMAVHDDCKLKFMELKTKRTHRFIIYKIEELQKQVIVEKIGEPGQTHEDLAASLPADECRYAIFDFDFVSSEGVPRSRIFFVAWSPDTARVRSKMIYASSKDRFKRELDGIQVELQATDPTEMDLDVFKSRAN
B1: the “resistance to Erysiphe cichoracearum as compared to non-transgenic wild-type plants” value in the assay with Erysiphe cichoracearum is recorded as “significantly increased resistance”. Further, the “resistance to Peronospora parasitica as compared to non-transgenic wild-type plants” value in the assay with Peronospora parasitica is “significantly increased resistance”.

B2: HvADF3 (S^6A): Constitutively active variant of barley ADF3 (SEQ ID No. 2) with S6A substitution, overexpressed from vector pHvADF3-CA (protein)
chain: MANASAGAGIHDDCKLRFVELKSKRMHRFITYRLENQKEVIVDQTGQRDATYEDFTKTLPENDCRFAVFDFDFTTPEDVPKSRIFYIFWSPDTAKVRSKMTYASNEKFKRTLDGIQIEMQATDPSEISLDVIKERAH
modifications: Hordeum vulgare
On to B2, for which, in the assay on peroxisomes, the peroxisomal movement result is on record as “considerably reduced”. In the assay with actin cytoskeleton, the “phalloidine-stainable actin fibers in bombarded cells” value is on record as “stainable actin fibers could only be detected in the neighboring cells, but not in the bombarded cells”. Also, in assay [1], the “fungal development in transfected cells” value is “the fungus can only form very short hyphae”.
